B1: ND6 (natural protein, Bos taurus (bovine), UniProt P03924 1-175, looked up)
chain: MMLYIVFILSVIFVMGFVGFSSKPSPIYGGLGLIVSGGVGCGIVLNFGGSFLGLMVFLIYLGGMMVVFGYTTAMATEQYPEIWLSNKAVLGAFVTGLLMEFFMVYYVLKDKEVEVVFEFNGLGDWVIYDTGDSGFFSEEAMGIAALYSYGTWLVIVTGWSLLIGVVVIMEITRGN
notes: ND6, core membrane subunit of respiratory complex I, Bos taurus; endogenous subunit of the purified enzyme
B2: NDUFA1 (natural protein, Bos taurus (bovine), UniProt Q02377 1-70, looked up)
chain: MWFEVLPGIAVMGVCLFIPGMATARIHRFSNGGKEKRVAHYPYQWYLMERDRRVSGVNRSYVSKGLENID
notes: NDUFA1, supernumerary subunit of respiratory complex I, Bos taurus; endogenous subunit of the purified enzyme
B3: NDUFA13 (natural protein, Bos taurus (bovine), UniProt Q95KV7 1-144, looked up)
chain: MAASKVKQDMPPVGGYGPIDYKRNLPRRGLSGYSMFAVGIGALLFGYWSMMKWNRERRRLQIEDFEARIALMPLLQAEKDRRVLQMLRENLEEEATVMKDVPGWKVGESVFHTTRWVTPMMGELYGLRASEEVLSATYGFIWYT
notes: NDUFA13, supernumerary subunit of respiratory complex I, Bos taurus
B4: NDUFA8 (natural protein, Bos taurus (bovine), UniProt P42029 1-172, looked up)
chain: MPGIVELPSLEDLKVQEVKVSSSVLKAAAHHYGAQCDKPNKEFMLCRWEEKDPRRCLEEGKLVNQCALEFFRQIKRHCAEPFTEYWTCIDYSGLQLFRRCRKQQAQFDECVLDKLGWVRPDLGDLSKVTKVKTDRPLPENPYHSRARPEPNPEVEGDLKPARHGSRLFFWTM
notes: NDUFA8, supernumerary subunit of respiratory complex I, Bos taurus; endogenous subunit of the purified enzyme

In this assay the target is T1, ND1 (Bos taurus (bovine), UniProt P03887 1-318).
T1 construct: ND1, core membrane subunit of respiratory complex I (NADH:ubiquinone oxidoreductase), Bos taurus; endogenous subunit of the purified enzyme; also called subunit ND1
T1 sequence (P03887 whole entry): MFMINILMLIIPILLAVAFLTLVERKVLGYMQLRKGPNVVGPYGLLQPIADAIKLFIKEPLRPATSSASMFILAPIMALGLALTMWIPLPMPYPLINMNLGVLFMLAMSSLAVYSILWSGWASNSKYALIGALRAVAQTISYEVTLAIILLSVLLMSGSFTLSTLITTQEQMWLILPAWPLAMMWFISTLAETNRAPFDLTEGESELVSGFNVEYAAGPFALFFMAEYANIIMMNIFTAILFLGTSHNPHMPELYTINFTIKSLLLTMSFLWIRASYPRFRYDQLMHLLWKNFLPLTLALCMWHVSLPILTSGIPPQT
The experiment in a line: cryo-EM structure; bovine complex I purified in LMNG, reconstituted into proteoliposomes (DOPC:DOPE:cardiolipin 8:1:1, ubiquinone-10; 10 mM MOPS-KOH pH 7.5, 50 mM KCl), on graphene oxide grids; closed, open1 and open2 states, outward- and inward-facing; best map CI-out-closed 2.5 Å. Particulars: both partners purified.
Take B1: the binding result was “binds”. As for B2, the entry is “binds”; as for B3, “binds”.

With B4, the binding result is listed as “binds”.

For the origin of these results see paper doi:10.1101/2023.12.14.571638, “Structural basis of a regulatory switch in mammalian complex I” (bioRxiv, 2023).
